Laboratory results as given in PMC8616066.

How the values were obtained:
[1] = molecular target: fluorescent tagged HER2 (human) (UniProt P04626); test: MST; Monolith NT.115; fluorescent tagged HER2, titration of purified GST fusion proteins
[2] = molecular target: eGFP-MUC4β_(ΔEGF2) (human); test: MST; Monolith NT.115; native fluorescence of the eGFP fusion proteins followed in cell lysate, titration against recombinant HER2-Fc; triplicate with two distinct cell lysates (n = 6)

| Kd [1] [nM] | Kd [2] [nM] | Substance |
| --- | --- | --- |
| 75 | – | GST-MUC4_(EGF1) (domain or fragment) |
| 242 | – | GST-MUC4_(EGF2) (domain or fragment) |
| – | 97 | recombinant HER2-Fc (from UniProt P04626 23-652) (Fc fusion) |
